Assay [1] deals with human histone H3.1 (human, UniProt P68431 1-136). The experiment in a line: cross-linking; XL-MS: LIN28B nucleosome (4.3 µM) mixed with OCT4 at nucleosome:OCT4 = 1:4, 1 h on ice, crosslinked with 9.6 mM DSS-H12/D12 at 30 °C for 30 min; Trypsin/Lys-C digest, LC/MS-MS, xQuest/xProphet. The conditions noted are these: both partners purified.
Assay [2] has as its target T1, human histone H4 (human, UniProt P62805 1-103).
T1 construct: histone H4, human canonical histone, wild type; Stood in the assays as part of the reconstituted LIN28B nucleosome; The H4 S47C mutant was used only for the chemical probing assay
Described as above. The following applies: both partners purified.

B1: His6-tagged human OCT4 (5CS) (natural protein)
chain: MAGHLASDFAFSPPPGGGGDGPGGPEPGWVDPRTWLSFQGPPGGPGIGPGVGPGSEVWGIPPCPPPYEFCGGMAYCGPQVGVGLVPQGGLETSQPEGEAGVGVESNSDGASPEPCTVTPGAVKLEKEKLEQNPEESQDIKALQKELEQFAKLLKQKRITLGYTQADVGLTLGVLFGKVFSQTTISRFEALQLSFKNMSKLRPLLQKWVEEADNNENLQEISKAETLVQARKRKRTSIENRVRGNLENLFLQSPKPTLQQISHIAQQLGLEKDVVRVWFSNRRQKGKRSSSDYAQREDFEAAGSPFSGGPVSFPLAPGPHFGTPGYGSPHFTALYSSVPFPEGEAFPPVSVTTLGSPMHSN
notes: OCT4, human; 5CS mutant: all 5 Cys residues of the POUS·POUHD domain replaced with Ser; Expressed from pET15b in which the thrombin site was replaced with a PreScission site; no cleavage step is described, and the gel-shift methods name His6-OCT4 (5CS). pET15b would place the tag at the N-terminus (surmised); also called His6-OCT4 (5CS)
B1: the binding result in assay [1] and in assay [2] was “binds” each time.

For the origin of these results see PMC7367260, “Nucleosome binding by the pioneer transcription factor OCT4” (Scientific Reports, 2020).
